The target in assay [1] is T1, human CD154 (human, UniProt P29965 113-261, limits assumed, biotin-labeled).
T1 construct: also called biotin-labeled human CD154; biotinylated human CD154
T1 sequence (looked up): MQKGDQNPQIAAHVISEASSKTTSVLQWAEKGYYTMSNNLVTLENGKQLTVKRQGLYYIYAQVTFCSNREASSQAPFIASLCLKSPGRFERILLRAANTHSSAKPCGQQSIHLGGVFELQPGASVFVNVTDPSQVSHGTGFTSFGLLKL
The assay is described as follows: ECL competition, CD3ε[+]: CD3ε homodimer added as competitor [2].
Description: Next, each obtained IgG was evaluated for its binding to CD3 and human CD154 at the same time by the competition method (electrochemiluminescence method (ECL method)).
A TBST solution containing 0.5% BSA (referred to as a blocking solution; the TBST solution was TBS (manufactured by Takara Bio Inc.) supplemented with 0.1% Tween 20) was added at 150 μL/well to streptavidin plate (MSD K.K.), and the plate was incubated at room temperature for 1 hour or longer. After removal of the blocking solution, each well was washed three times with 250 μL of a TBST solution. The antibody-antigen complex solution was added thereto at 50 μL/well, and the plate was incubated at room temperature for 1 hour so that the biotinylated antigen-antibody-detection sulfo-tag antibody complex solution bound via the biotinylated antigen to the streptavidin plate. After removal of the antibody-antigen complex solution, each well was washed three times with a TBST solution, and a solution of 4×READ buffer (MSD K.K.) diluted 2-fold with water was added thereto at 150 μL/well, followed by the detection of the luminescence signal of the sulfo-tag using Sector Imager 2400 (MSD K.K.).

Assay [2] deals with T2, CD3ε homodimer protein (human, UniProt P07766 23-126, limits assumed).
T2 construct: also called human CD3ε homodimer protein
The experiment in a line: SPR (Biacore T200), one-arm antibody as analyte over immobilised CD3ε homodimer protein, single-cycle kinetics. (In general: SPR reads the build-up and loss of mass on a sensor chip optically.)
T2 sequence (P07766 23-126 limits assumed): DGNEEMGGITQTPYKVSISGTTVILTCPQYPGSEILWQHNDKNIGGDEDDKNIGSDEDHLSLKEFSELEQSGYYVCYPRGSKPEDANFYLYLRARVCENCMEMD

For assay [3], the target named is T3, CD3ε homodimer protein (human, UniProt P07766 23-126, limits assumed).
T3 construct: also called CD3 (CD3ε)
The experiment in a line: SPR.
T3 sequence (P07766 23-126 limits assumed): as above
Description: Each one-amino acid altered form constructed, expressed, and purified in the paragraph (6-2) was evaluated using Biacore T200 (GE Healthcare Japan Corp.). An appropriate amount of CD3ε homodimer protein was immobilized onto Sensor chip CM4 (GE Healthcare Japan Corp.) by the amine coupling method. Then, the antibody having an appropriate concentration was injected thereto as an analyte and allowed to interact with the CD3ε homodimer protein on the sensor chip. Then, the sensor chip was regenerated by the injection of 10 mmol/L glycine-HCl (pH 1.5). The assay was conducted at 25° C., and HBS-EP+ (GE Healthcare Japan Corp.) was used as a running buffer. […] Each parameter was calculated using Biacore T200 Evaluation Software (GE Healthcare Japan Corp.).
Specifically, when the amount of the GLS3000-containing antibody bound was defined as X and the amount of the L chain one-amino acid altered form bound was defined as Y, a value of Z (ratio of amounts bound)=Y/X was used.

B1: 154R5E11#3 one-arm antibody (antibody, human IgG1, kappa, L234A L235A, N297A)
heavy: QVQLVESGGGLVQPGRSLRLSCAASGFTFSNAWMHWVRQAPGKGLEWVAQIKDRGNNYAAYYAESVKGRFTISRDDSKNSIYLQMNSLKTEDTAVYYCRYVHYGSYFFASFYFGVDIWGQGTAVTVSSASTKGPSVFPLAPSSKSTSGGTAALGCLVKDYFPEPVTVSWNSGALTSGVHTFPAVLQSSGLYSLSSVVTVPSSSLGTQTYICNVNHKPSNTKVDKKVEPKSCDKTHTCPPCPAPEAAGGPSVFLFPPKPKDTLMISRTPEVTCVVVDVSHEDPEVKFNWYVDGVEVHNAKTKPREEQYASTYRVVSVLTVLHQDWLNGKEYKCKVSNKALPAPIEKTISKAKGQPREPQVYTLPPSRCELTKNQVSLSCAVKGFYPSDIAVEWESNGQPENNYKTTPPVLDSDGSFFLVSKLTVDKSRWQQGNVFSCSVMHEALHNHYTQKSLSLSPDYKDDDDK
chain: EPKSSDKTHTCPPCPAPELLGGPSVFLFPPKPKDTLMISRTPEVTCVVVDVSHEDPEVKFNWYVDGVEVHNAKTKPREEQYNSTYRVVSVLTVLHQDWLNGKEYKCKVSNKALPAPIEKTISKAKGQPREPQVCTLPPSRDELTKNQVSLWCLVKGFYPSDIAVEWESNGQPENNYKTTPPVLDSDGSFFLYSKLTVDKSRWQQGNVFSCSVMHEALHNRYTQKSLSLSP
light: DIVMTQSPLSLPVTPGEPASISCRSSQSLVHSNRNTYLHWYQQKPGQAPRLLIYKVSNRFSGVPDRFSGSGSGTDFTLKISRVEAEDVGVYYCGQGTQVPYTFGQGTKLEIKRTVAAPSVFIFPPSDEQLKSGTASVVCLLNNFYPREAKVQWKVDNALQSGNSQESVTEQDSKDSTYSLSSTLTLSKADYEKHKVYACEVTHQGLSSPVTKSFNRGEC
notes: As m48
On to B1, for which the “relative ECL reaction (to no antigen coating)” value in assay [1] worked out at 1.

B2: One-arm antibody: NNS6f51 (CE115HA340 with GFLVLW inserted between Kabat positions 99 and 100) / Kn010G3 / GLS3000-kappa (antibody)
chain 1: QVQLVESGGGLVQPGRSLRLSCAASGFTFSNAWMHWVRQAPGKGLEWVAQIKDKSNNYATYYAESVKGRFTISRDDSKNSIYLQMNSLKTEDTAVYYCRYVHYAAGFLVLWYYGVDAWGQGTTVTVSSASTKGPSVFPLAPSSKSTSGGTAALGCLVKDYFPEPVTVSWNSGALTSGVHTFPAVLQSSGLYSLSSVVTVPSSSLGTQTYICNVNHKPSNTKVDKKVEPKSCDKTHTCPPCPAPEAAGGPSVFLFPPKPKDTLMISRTPEVTCVVVDVSHEDPEVKFNWYVDGVEVHNAKTKPREEQYASTYRVVSVLTVLHQDWLNGKEYKCKVSNKALPAPIEKTISKAKGQPREPQVYTLPPSRCELTKNQVSLSCAVKGFYPSDIAVEWESNGQPENNYKTTPPVLDSDGSFFLVSKLTVDKSRWQQGNVFSCSVMHEALHNHYTQKSLSLSPDYKDDDDK
chain 2: EPKSSDKTHTCPPCPAPELLGGPSVFLFPPKPKDTLMISRTPEVTCVVVDVSHEDPEVKFNWYVDGVEVHNAKTKPREEQYNSTYRVVSVLTVLHQDWLNGKEYKCKVSNKALPAPIEKTISKAKGQPREPQVCTLPPSRDELTKNQVSLWCLVKGFYPSDIAVEWESNGQPENNYKTTPPVLDSDGSFFLYSKLTVDKSRWQQGNVFSCSVMHEALHNRYTQKSLSLSP
chain 3: DIVMTQSPLSLPVTPGEPASISCRSSQSLVHSNRNTYLHWYQQKPGQAPRLLIYKVSNRFSGVPDRFSGSGSGTDFTLKISRVEAEDVGVYYCGQGTQVPYTFGQGTKLEIKRTVAAPSVFIFPPSDEQLKSGTASVVCLLNNFYPREAKVQWKVDNALQSGNSQESVTEQDSKDSTYSLSSTLTLSKADYEKHKVYACEVTHQGLSSPVTKSFNRGEC
B2 gave a dissociation constant Kd in assay [2] of 31 nM. This counts as double-digit nanomolar.

B3: One-arm antibody: NNS6f47 (CE115HA340 with HFMWWG inserted between Kabat positions 99 and 100) / Kn010G3 / GLS3000-kappa (antibody)
chain 1: QVQLVESGGGLVQPGRSLRLSCAASGFTFSNAWMHWVRQAPGKGLEWVAQIKDKSNNYATYYAESVKGRFTISRDDSKNSIYLQMNSLKTEDTAVYYCRYVHYAAHFMWWGYYGVDAWGQGTTVTVSSASTKGPSVFPLAPSSKSTSGGTAALGCLVKDYFPEPVTVSWNSGALTSGVHTFPAVLQSSGLYSLSSVVTVPSSSLGTQTYICNVNHKPSNTKVDKKVEPKSCDKTHTCPPCPAPEAAGGPSVFLFPPKPKDTLMISRTPEVTCVVVDVSHEDPEVKFNWYVDGVEVHNAKTKPREEQYASTYRVVSVLTVLHQDWLNGKEYKCKVSNKALPAPIEKTISKAKGQPREPQVYTLPPSRCELTKNQVSLSCAVKGFYPSDIAVEWESNGQPENNYKTTPPVLDSDGSFFLVSKLTVDKSRWQQGNVFSCSVMHEALHNHYTQKSLSLSPDYKDDDDK
chain 2: EPKSSDKTHTCPPCPAPELLGGPSVFLFPPKPKDTLMISRTPEVTCVVVDVSHEDPEVKFNWYVDGVEVHNAKTKPREEQYNSTYRVVSVLTVLHQDWLNGKEYKCKVSNKALPAPIEKTISKAKGQPREPQVCTLPPSRDELTKNQVSLWCLVKGFYPSDIAVEWESNGQPENNYKTTPPVLDSDGSFFLYSKLTVDKSRWQQGNVFSCSVMHEALHNRYTQKSLSLSP
chain 3: DIVMTQSPLSLPVTPGEPASISCRSSQSLVHSNRNTYLHWYQQKPGQAPRLLIYKVSNRFSGVPDRFSGSGSGTDFTLKISRVEAEDVGVYYCGQGTQVPYTFGQGTKLEIKRTVAAPSVFIFPPSDEQLKSGTASVVCLLNNFYPREAKVQWKVDNALQSGNSQESVTEQDSKDSTYSLSSTLTLSKADYEKHKVYACEVTHQGLSSPVTKSFNRGEC
B3 displayed an equilibrium dissociation constant (Kd) in assay [2] of 31 nM.

B4: One-arm antibody: NNS6f54 (CE115HA340 with FEWVGW inserted between Kabat positions 99 and 100) / Kn010G3 / GLS3000-kappa (antibody)
chain 1: QVQLVESGGGLVQPGRSLRLSCAASGFTFSNAWMHWVRQAPGKGLEWVAQIKDKSNNYATYYAESVKGRFTISRDDSKNSIYLQMNSLKTEDTAVYYCRYVHYAAFEWVGWYYGVDAWGQGTTVTVSSASTKGPSVFPLAPSSKSTSGGTAALGCLVKDYFPEPVTVSWNSGALTSGVHTFPAVLQSSGLYSLSSVVTVPSSSLGTQTYICNVNHKPSNTKVDKKVEPKSCDKTHTCPPCPAPEAAGGPSVFLFPPKPKDTLMISRTPEVTCVVVDVSHEDPEVKFNWYVDGVEVHNAKTKPREEQYASTYRVVSVLTVLHQDWLNGKEYKCKVSNKALPAPIEKTISKAKGQPREPQVYTLPPSRCELTKNQVSLSCAVKGFYPSDIAVEWESNGQPENNYKTTPPVLDSDGSFFLVSKLTVDKSRWQQGNVFSCSVMHEALHNHYTQKSLSLSPDYKDDDDK
chain 2: EPKSSDKTHTCPPCPAPELLGGPSVFLFPPKPKDTLMISRTPEVTCVVVDVSHEDPEVKFNWYVDGVEVHNAKTKPREEQYNSTYRVVSVLTVLHQDWLNGKEYKCKVSNKALPAPIEKTISKAKGQPREPQVCTLPPSRDELTKNQVSLWCLVKGFYPSDIAVEWESNGQPENNYKTTPPVLDSDGSFFLYSKLTVDKSRWQQGNVFSCSVMHEALHNRYTQKSLSLSP
chain 3: DIVMTQSPLSLPVTPGEPASISCRSSQSLVHSNRNTYLHWYQQKPGQAPRLLIYKVSNRFSGVPDRFSGSGSGTDFTLKISRVEAEDVGVYYCGQGTQVPYTFGQGTKLEIKRTVAAPSVFIFPPSDEQLKSGTASVVCLLNNFYPREAKVQWKVDNALQSGNSQESVTEQDSKDSTYSLSSTLTLSKADYEKHKVYACEVTHQGLSSPVTKSFNRGEC
The molecule B4 had a Kd in assay [2] of 29 nM.

B5: 154R5F08#3 one-arm antibody (antibody, human IgG1, kappa, L234A L235A, N297A)
heavy: QVQLVESGGGLVQPGRSLRLSCAASGFTFSNAWMHWVRQAPGKGLEWVAQIKDKGNQYATYYAESVKGRYTISRDDSKNSIYLQMNSLKTEDTAVYYCRYVHYGTYFFALPAFGVDIWGQGTTVTVSSASTKGPSVFPLAPSSKSTSGGTAALGCLVKDYFPEPVTVSWNSGALTSGVHTFPAVLQSSGLYSLSSVVTVPSSSLGTQTYICNVNHKPSNTKVDKKVEPKSCDKTHTCPPCPAPEAAGGPSVFLFPPKPKDTLMISRTPEVTCVVVDVSHEDPEVKFNWYVDGVEVHNAKTKPREEQYASTYRVVSVLTVLHQDWLNGKEYKCKVSNKALPAPIEKTISKAKGQPREPQVYTLPPSRCELTKNQVSLSCAVKGFYPSDIAVEWESNGQPENNYKTTPPVLDSDGSFFLVSKLTVDKSRWQQGNVFSCSVMHEALHNHYTQKSLSLSPDYKDDDDK
chain: EPKSSDKTHTCPPCPAPELLGGPSVFLFPPKPKDTLMISRTPEVTCVVVDVSHEDPEVKFNWYVDGVEVHNAKTKPREEQYNSTYRVVSVLTVLHQDWLNGKEYKCKVSNKALPAPIEKTISKAKGQPREPQVCTLPPSRDELTKNQVSLWCLVKGFYPSDIAVEWESNGQPENNYKTTPPVLDSDGSFFLYSKLTVDKSRWQQGNVFSCSVMHEALHNRYTQKSLSLSP
light: DIVMTQSPLSLPVTPGEPASISCRSSQSLVHSNRNTYLHWYQQKPGQAPRLLIYKVSNRFSGVPDRFSGSGSGTDFTLKISRVEAEDVGVYYCGQGTQVPYTFGQGTKLEIKRTVAAPSVFIFPPSDEQLKSGTASVVCLLNNFYPREAKVQWKVDNALQSGNSQESVTEQDSKDSTYSLSSTLTLSKADYEKHKVYACEVTHQGLSSPVTKSFNRGEC
notes: As m48
With B5, in assay [1], the “relative ECL reaction (to no antigen coating)” value came out at 10.

B6: 154R5F08#1 one-arm antibody (antibody, human IgG1, kappa, L234A L235A, N297A)
heavy: QVQLVESGGGLVQPGRSLRLSCAASGFTFSNAWMHWVRQAPGKGLEWVAQIKDKGNQYATYYAESVKGRFTISRDDSKNSIYLQMNSLKTEDTAVYYCRYVHYGTYFFALPAFGVDIWGQGTTVTVSSASTKGPSVFPLAPSSKSTSGGTAALGCLVKDYFPEPVTVSWNSGALTSGVHTFPAVLQSSGLYSLSSVVTVPSSSLGTQTYICNVNHKPSNTKVDKKVEPKSCDKTHTCPPCPAPEAAGGPSVFLFPPKPKDTLMISRTPEVTCVVVDVSHEDPEVKFNWYVDGVEVHNAKTKPREEQYASTYRVVSVLTVLHQDWLNGKEYKCKVSNKALPAPIEKTISKAKGQPREPQVYTLPPSRCELTKNQVSLSCAVKGFYPSDIAVEWESNGQPENNYKTTPPVLDSDGSFFLVSKLTVDKSRWQQGNVFSCSVMHEALHNHYTQKSLSLSPDYKDDDDK
chain: EPKSSDKTHTCPPCPAPELLGGPSVFLFPPKPKDTLMISRTPEVTCVVVDVSHEDPEVKFNWYVDGVEVHNAKTKPREEQYNSTYRVVSVLTVLHQDWLNGKEYKCKVSNKALPAPIEKTISKAKGQPREPQVCTLPPSRDELTKNQVSLWCLVKGFYPSDIAVEWESNGQPENNYKTTPPVLDSDGSFFLYSKLTVDKSRWQQGNVFSCSVMHEALHNRYTQKSLSLSP
light: DIVMTQSPLSLPVTPGEPASISCRSSQSLVHSNRNTYLHWYQQKPGQAPRLLIYKVSNRFSGVPDRFSGSGSGTDFTLKISRVEAEDVGVYYCGQGTQVPYTFGQGTKLEIKRTVAAPSVFIFPPSDEQLKSGTASVVCLLNNFYPREAKVQWKVDNALQSGNSQESVTEQDSKDSTYSLSSTLTLSKADYEKHKVYACEVTHQGLSSPVTKSFNRGEC
notes: As m48
B6: the “relative ECL reaction (to no antigen coating)” value in assay [1] came out at 13.

B7: GLS3000 L33P (antibody, name in Kabat numbering, V domains shown)
VH: QVQLVESGGGVVQPGRSLRLSCAASGFTFSNAWMHWVRQAPGKGLEWVAQIKAKSNNYATYYAESVKGRFTISRDDSKNSLYLQMNSLKTEDTAVYYCRYVHYGAYYGVDAWGQGTTVTVSS
VL: DIVMTQSPLSLPVTPGEPASISCRSSQSLVHSNRNTYPHWYQQKPGQAPRLLIYKVSNRFSGVPDRFSGSGSGTDFTLKISRVEAEDVGVYYCGQGTQVPYTFGQGTKLEIK
notes: one-arm, rest as m2
For B7, the “KD ratio to GLS3000” value in assay [3] is 32.7.

For orientation: Kd means the concentration at which binding is half-saturated. Low values mean tighter binding, high ones weaker binding.

These data come from patent publication US20260049138A1 (Chugai, published 2026).
